Test results as given in publication PMC7253601, “Rules of Expansion: an Updated Consensus Operator Site for the CopR-CopY Family of Bacterial Copper Exporter System Repressors” (mSphere, 2019).

These molecules were tested against T1, CopY (S. pneumoniae) (Streptococcus pneumoniae, UniProt A0ACD7PQP7 1-131) (assay: BLI; BLI: 50 mM Tris pH 7.4, 150 mM NaCl, 4% glycerol, 1 mM TCEP, 0.1% BSA, 26 C; EMSA: Tris-borate without EDTA, 4 C, 5% PAGE). Settings: protein: recombinant; tags: N-terminal 6xHis removed by TEV (pMCSG7; also tested uncleaved); chain copies: 2; label: 5' biotin on forward strand; blunt.

| Molecule | Kd [nM] |
| --- | --- |
| wild type two-operator DNA (BLI) (dsDNA) DNA 1: TAATTGACAAATGTAGATTTTAAGAGTATACTGATGAGTGTAATTGACAAATGTAGATTTT DNA 2: AAAATCTACATTTGTCAATTACACTCATCAGTATACTCTTAAAATCTACATTTGTCAATTA | 28.1 ± 0.2 |

What follows are molecules tested against T1, CopY (S. pneumoniae) (assay: BLI; 3 uM CopY; BLI: 50 mM Tris pH 7.4, 150 mM NaCl, 4% glycerol, 1 mM TCEP, 0.1% BSA, 26 C; EMSA: Tris-borate without EDTA, 4 C, 5% PAGE). Settings: protein: recombinant; tags: N-terminal 6xHis removed by TEV (pMCSG7; also tested uncleaved); chain copies: 2; label: 5' biotin on forward strand; blunt.

| Molecule | binding result |
| --- | --- |
| SP_1863 (dsDNA) DNA 1: ATGAATAAAACAATTGTAACACTCATC DNA 2: GATGAGTGTTACAATTGTTTTATTCAT | no binding |
| SP_2073 (dsDNA) DNA 1: AAGGCGGAAACATGTGTCAATGACTTG DNA 2: CAAGTCATTGACACATGTTTCCGCCTT | no binding |
| SP_0045 (dsDNA) DNA 1: GGTGAACTAACAGATGTTTACGAAATT DNA 2: AATTTCGTAAACATCTGTTAGTTCACC | no binding |
| SP_0090 2 (dsDNA) DNA 1: GAGTATACTAATAATGTAATCGTTATC DNA 2: GATAACGATTACATTATTAGTATACTC | no binding |
| SP_1433 (dsDNA) DNA 1: GTAATTATAACAGATGTATAATAGAAA DNA 2: TTTCTATTATACATCTGTTATAATTAC | no binding |
| SP_0090 1 (dsDNA) DNA 1: TGATTTAGGACATTTGTTTGATAGTGG DNA 2: CCACTATCAAACAAATGTCCTAAATCA | no binding |
| SP_0530 (dsDNA) DNA 1: ATTTGAGGAACAAATGTACGTTTATAA DNA 2: TTATAAACGTACATTTGTTCCTCAAAT | no binding |

What follows are molecules tested against CopY (S. pneumoniae) (Streptococcus pneumoniae (TIGR4?)) (UniProt A0ACD7PQP7) (assay: BLI). Settings: BLI: 50 mM Tris pH 7.4, 150 mM NaCl, 4% glycerol, 1 mM TCEP, 0.1% BSA, 26 C; EMSA: Tris-borate without EDTA, 4 C, 5% PAGE.

| Molecule | Kd [nM] |
| --- | --- |
| 19 bp T to C (operator position 3) | 40.4 |
| full palindrome (A13C) | 39.6 |
| 16 bp (16 of 21 repeat bases kept: ATTGACAAATGTAGAT) | 360 |
| 14 bases (14 of 21 repeat bases) | > 3000 |
| 19 bp (19 of 21 repeat bases) | 37.1 |
| E. hirae proximal operator | 164 |

Target: the molecule itself
Assay: SEC; Superdex 200; 20 mM Tris (pH 8), 200 mM NaCl, 1 mM TCEP; elution volume compared to an SEC standard (Bio-Rad); on ice or at 4°C
Settings: not given

| Molecule | stoichiometry N |
| --- | --- |
| Streptococcus thermophilus CopY (natural protein, S. thermophilus, UniProt Q5M352 1-143, looked up, CopY (CopR-CopY family cop operon repressor), Streptococcus thermophilus; cloned from genomic DNA; also called S. thermophilus cop operon repressor; CopR-CopY; source: recombinant (pMCSG7 vector), purified (IMAC, TEV cleavage, subtractive IMAC, SEC); not shown: His6, N-terminal, cleaved) MLAISSAEWEVMRVLWAKGQATSSEIIEILAKKLDWSASTVKTLIGRLADKGYLTSQRQGRGFIYQASLGEDEAIFQALEAVFDKICLTKHSDLLGQLIAKTPMTQADVDKLQALLLAKVPVDQVVCDCVPGQCACGHHMEVN | 2 |
| Enterococcus hirae CopY E86D (natural protein, CopY, cop operon repressor, Enterococcus hirae; cloned from genomic DNA; the methods call the gene copR; The wild type was cut by TEV inside the protein and was used uncleaved; also called E. hirae cop repressor; cleaved E86D protein; source: recombinant (pMCSG7 vector), purified (IMAC, TEV cleavage, subtractive IMAC, SEC); not shown: His6, N-terminal, cleaved) MEEKRVLIKISDSEWEVMRVIWTLGQANAQQITQILADSMDWKVATVKTLLGRLVKKEALWTEQEGKKFIYHPAVSEMENVRSATDNLFSHICAKRVGATIADLVEEATLTQEDIQQIMKQLNKKEPVETIECNCIPGQCECKKQ | 2 |

Each molecule was assayed against Streptococcus pneumoniae CopY (S. pneumoniae) in the same assay as above. Settings: not given.

| Molecule | stoichiometry N |
| --- | --- |
| Streptococcus pneumoniae CopY (natural protein) | 2 |
